Like-named read-outs stand apart in the source and are kept apart here.
Columns and labels:
[1] = Exacerbation/tobacco smoke mouse model: weight loss and tolerability; type: in vivo, C57BL/6J mice
Method: (§1) The aim of the study was to determine the effect of IL-18BP, administered at three dose levels, by the sub-cutaneous route, on Polyinosinic:polycytidylic acid-induced exacerbation of tobacco-smoke induced pulmonary inflammation, in C57BL/6J mice. High level of dexamethasone, dosed orally, was included in the study as a reference agent.
(§2) Mice received either vehicle (PBS) or IL-18BP. IL-18BP was given subcutaneously to 3 groups of animals respectively at 1, 3 or 10 mg/kg 2 h prior to the initial tobacco smoke exposure from Day 1 to Day 4. Mice received orally either vehicle or dexamethasone (10 mg/kg) 1 h prior to each twice daily exposure. Mice received by intranasal administration either the vehicle or Polyinosinic:polycytidylic acid (2 mg/kg) 2 h prior to the initial air or tobacco smoke exposure on Day 4 to induce lung inflammation exacerbation. Tobacco smoke exposure was performed during the morning and afternoon as follow: Day 1 for 15 min, Day 2 for 25 min, Day 3 for 30 min and Day 4 for 30 min.
As an example, weight loss was mitigated by IL-18BP even though both Students t-test and ANOVA statistical analyses were not significant (see FIG. 10). A large majority of mice receiving 3 and 10 mg/kg IL-18BP lost respectively 6-7% weight in contrast to the control exposed to tobacco smoke and p[I:C] that lost about 9%.

IL-18 [2] = molecular target: T1, IL-18 (Homo sapiens, UniProt Q14116); conditions: cited from earlier work
T1 sequence (Q14116 37-193): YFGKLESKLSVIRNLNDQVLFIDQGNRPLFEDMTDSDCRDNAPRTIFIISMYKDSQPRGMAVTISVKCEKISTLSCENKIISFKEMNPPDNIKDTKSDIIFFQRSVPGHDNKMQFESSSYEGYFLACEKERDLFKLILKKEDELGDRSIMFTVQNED

IL-18 [3] = molecular target: T1, IL-18; experiment: KD calculation by titration with free IL-18 ELISA (IL-18BP capture); type: binding; conditions: read-out: KD between human IL-18 and IL-18BP by titration
Method: Microplate wells are coated with an appropriate volume phosphate buffer saline solution containing recombinant human IL-18BP. Plates are incubated for a period of time at 4° C. and then stabilized with a blocking buffer containing bovine serum albumin or other appropriate blocking agents. Once the reaction is finished, microplates are sealed and stored at 4° C. until used for detection of free IL-18. Microplates can also be dried in a stabilizing solution allowing storage at room temperature and then be reconstituted by hydration when needed for assay.
As an example, for a final reaction volume of 100 μl, dispense first 80 μl of biotin/antibody conjugate. Samples or biological fluids containing free IL-18 are tested with the IL-18BP coated microplates. After that, 20 μl sample volume containing biological fluid or standard is dispensed per microplate well. Non-diluted or diluted biological fluid can be but is not restricted to serum, urine, tear, saliva, bile, sweat, exhalation or expiration, sputum, bronchoalveolar fluid, sebum, cellular, gland, mucosa or tissue secretion, biopsy, homogenized tissue. […] The resulting reactions are then monitored with a microplate reader at an appropriate nanometer wavelength for absorbance or fluorescence of the produced reagent. […]
KD was calculated based on the following formula: KD=[free IL-18]×[free IL-18BP]/[IL-18/IL-18BP complex] […]

G-CSF = experiment: Exacerbation/tobacco smoke mouse model: G-CSF in BALF by ELISA; type: in vivo, C57BL/6J mice; conditions: three tested doses 1, 3, 10 mg/kg s.c., day 5, FIG. 9
Method: as §1
as §2, with “Tobacco smoke exposure was performed during the morning and afternoon as follow: Day 1 for 15 min, Day 2 for 25 min, Day 3 for 30 min and Day 4 for 30 min.” left out
Following the above treatments, animals were terminally anaesthetised on Day 5. […] Cells recovered from the BALF were counted using the Sysmex cell counter.
G-CSF is well acknowledged as key cytokine stimulating the survival, proliferation, differentiation, and function of neutrophil precursors and mature neutrophils. […] The presence of G-CSF in the BALF was monitored with a commercially available ELISA kit.

IL-18 [4] = molecular target: T1, IL-18; experiment: Titration of free IL-18 as a function of IL-18BP level (free IL-18 ELISA); type: binding; conditions: 400 pg/mL IL-18 in PBS with 5% BSA
Method: A constant quantity of recombinant IL-18 was titrated as a function of different and well defined quantities of IL-18BP in order to understand when free IL-18 is not any more detectable. A PBS solution of 400 pg/mL IL-18 supplemented by 5% BSA was spiked with defined quantities of IL-18BP ranging from 0 to 10′000 pg/mL. The molar ratios were calculated according to the respective molecular weight of IL-18 and IL-18BP. The free IL-18 detection was performed with ELISA using IL-18BP for IL-18 as described above. […] In contrast, when molar ratio is lower than 15, free IL-18 is easily detectable.

[5] = test system: neutrophil infiltration in the lung airway space; experiment: Exacerbation/tobacco smoke mouse model: neutrophil infiltration in lung airway space; type: in vivo, C57BL/6J mice
Method: as §1, §2
(§3) Following the above treatments, animals were terminally anaesthetised on Day 5. After that, a blood sample was taken via the sub-clavian artery (plasma) and the animals were bronchoalveloar lavaged with 3×0.4 ml of PBS for further cellular and cytokine/mediator analysis. […] Cells recovered from the BALF were counted using the Sysmex cell counter.

[6] = test system: total cell infiltration in the lung airway space; experiment: Exacerbation/tobacco smoke mouse model: total cell infiltration in lung airway space (BALF); type: in vivo, C57BL/6J mice
Method: as §1, §2, §3

IL-18 [7] = molecular target: T1, IL-18; experiment: New BIAcore setup: IL-18BP bound to chip, affinity to IL-18; type: binding; conditions: IL-18BP on BIAcore chip
Description: Following the above KD results obtain by titration, we tested the binding affinity of IL-18BP to IL-18 with a simpler BIAcore setup consisting of binding IL-18BP to the BIAcore chip and then testing its affinity to IL-18. The method setup is the contrary of Kim et al 2000^8, who bound IL-18 to the BIAcore chip with a monoclonal antibody and then tested the affinity of the complex antibody-IL-18 to IL-18BP.

B1: IL-18BP: IL-18 Binding Protein, naturally occurring IL-18 antagonist, as shown in SEQ ID NO: 7 (protein)
chain: TPVSQTTTAATASVRSTKDPCPSQPPVFPAAKQCPALEVTWPEVEVPLNGTLSLSCVACSRFPNFSILYWLGNGSFIEHLPGRLWEGSTSRERGSTGTQLCKALVLEQLTPALHSTNFSCVLVDPEQVVQRHVVLAQLWAGLRATLPPTQEALPSSHSSPQQQG
modifications: IL-18 binding protein
Weight loss ([1]; 3 and 10 mg/kg s.c., large majority of mice, day 5): 6-7% | Tolerability ([1]; exacerbation/tobacco smoke mouse model): well tolerated | Kd (IL-18 [2]; BIAcore, literature, read-out: KD reported in the literature (Kim et al 2000)): 0.4 nM | Kd (IL-18 [2]; used in Law of Mass Action calculation, read-out: Dissociation constant as calculated by Kim et al 2000): 0.4 nM | Kd (IL-18 [3]; PBS supplemented by 5% BSA diluent): 0.035 nM | Kd (IL-18 [3]; serum diluent (healthy volunteer sera depleted in endogenous IL-18BP)): 0.05 nM | Mitigation of G-CSF release in the lung airways (G-CSF): statistically relevant effect | IL-18BP concentration at which 400 pg/mL IL-18 detection is near background (IL-18 [4]): ≥ 6000 pg/mL | Inhibition of neutrophil infiltration ([5]; 10 mg/kg s.c., day 5, FIG. 8): best statistical efficacy | Inhibition of neutrophil infiltration ([5]; 3 and 10 mg/kg s.c., day 5, FIG. 7): statistically valuable efficacy | Exacerbated inflammation inhibition (total cell infiltration) ([6]; 10 mg/kg s.c., day 5, FIG. 6): clear and statistically relevant efficacy | Mitigation of total cell infiltration in the lung ([6]; 3 and 10 mg/kg s.c., day 5, compared to dexamethasone, FIG. 5): statistically valuable efficacy | Ka (IL-18 [7]): 5.3 ± 1.2 10^+5/Ms

Reference: patent publication US11530263B2, “IL-18 binding protein (IL-18BP) in inflammatory diseases” (AB2 BIO SA, priority 2013, dated 2022)
